The source of these data is the supplement of paper PMC5998384.

The test system of data set [1] is HeLa Kyoto. Nature of the data set: solubility in G1/S (NP-40 vs SDS abundance) (log2 ratio); higher = more soluble. Conditions: cell cycle stage: G1/S.
Data set [2] concerns HeLa Kyoto. The data set is described as follows: melting temperature (median over replicates), in situ; higher = more thermally stable.
Data set [3] has as its system HeLa Kyoto. The data set is described as follows: solubility change mitosis vs G1/S (difference of NP-40 vs SDS log2 ratios) (log2 ratio difference); higher = more soluble in mitosis.
Data set [4] concerns HeLa Kyoto. Nature of the data set: thermal stability score vs G1/S (z-score of summed log2 fold changes over temperatures); higher = more thermally stable than in G1/S.
Where [5] appears, read: cell cycle stage: early G1 (4.5 h after nocodazole release).
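Throughout, for melting temperature (median over replicates), in situ: HeLa Kyoto cells synchronized by double thymidine or nocodazole block, proteins quantified by TMT10plex mass spectrometry, three independent biological replicates.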
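Throughout, for solubility change mitosis vs G1/S (difference of NP-40 vs SDS log2 ratios): synchronized HeLa Kyoto cells (double thymidine block for G1/S, nocodazole release for mitosis), protein amounts in NP-40 versus SDS lysates quantified by mass spectrometry, three biological replicates.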
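Throughout, for solubility in G1/S (NP-40 vs SDS abundance): HeLa Kyoto cells arrested at G1/S by double thymidine block, proteins quantified by TMT10plex mass spectrometry in mild NP-40 versus SDS extracts, three biological replicates.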
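Throughout, for thermal stability score vs G1/S (z-score of summed log2 fold changes over temperatures): synchronized HeLa Kyoto cells, proteins quantified by TMT10plex mass spectrometry, three biological replicates, mitosis taken 0.5 h after nocodazole release, G1/S directly after double thymidine block.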

Sequence of HDGF (chain, as listed by the source): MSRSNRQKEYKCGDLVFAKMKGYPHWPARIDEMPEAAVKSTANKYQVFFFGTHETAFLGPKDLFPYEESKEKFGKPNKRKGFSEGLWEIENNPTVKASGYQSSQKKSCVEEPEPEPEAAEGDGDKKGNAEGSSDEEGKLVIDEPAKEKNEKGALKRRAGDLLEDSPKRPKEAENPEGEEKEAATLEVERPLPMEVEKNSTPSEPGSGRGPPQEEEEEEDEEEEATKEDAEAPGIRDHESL

“MFFWCACCLMVAWRVSASDAEHCPELPPVDNSIFVAKEVEGQILGTYVCIKGYHLVGKKTLFCNASKEWDNTTTECRLGHCPDPVLVNGEFSSSGPVNVSDKITFMCNDHYILKGSNRSQCLEDHTWAPPFPICKSRDCDPPGNPVHGYFEGNNFTLGSTISYYCEDRYYLVGVQEQQCVDGEWSSALPVCKLIQEAPKPECEKALLAFQESKNLCEAMENFMQQLKESGMTMEELKYSLELKKAELKAKLL [C4BPB]”: in the data set with HeLa Kyoto [1], the “solubility in G1/S (log2)” value amounted to 0.187. The melting temperature with HeLa Kyoto [2] (cell cycle stage: G1/S) and with HeLa Kyoto [2] (cell cycle stage: mitosis) was 54.8 °C each time. In the data set with HeLa Kyoto [3], the “solubility change mitosis (log2)” value was -0.0172. Besides, the values for the thermal stability score in the data set with HeLa Kyoto [4] (setting [5]) and in the data set with HeLa Kyoto [4] (cell cycle stage: mitosis) were 5.14 and 5.56, respectively.
Regarding “MNPAAEAEFNILLATDSYKVTHYKQYPPNTSKVYSYFECREKKTENSKLRKVKYEETVFYGLQYILNKYLKGKVVTKEKIQEAKDVYKEHFQDDVFNEKGWNYILEKYDGHLPIEIKAVPEGFVIPRGNVLFTVENTDPECYWLTNWIETILVQSWYPITVATNSREQKKILAKYLLETSGNLDGLEYKLHDFGYRGVSSQETAGIGASAHLVNFKGTDTVAGLALIKKYYGTKDPVPGYSVPAAEHSTITAWGKDHEKDAFEHIVTQFSSVPVSVVSDSYDIYNACEKIWGEDLRHLIVSRSTQAPLIIRPDSGNPLDTVLKVLEILGKKFPVTENSKGYKLLPPYLRVIQGDGVDINTLQEIVEGMKQKMWSIENIAFGSGGGLLQKLTRDLLNCSFKCSYVVTNGLGINVFKDPVADPNKRSKKGRLSLHRTPAGNFVTLEEGKGDLEEYGQDLLHTVFKNGKVTKSYSFDEIRKNAQLNIELEAAHH [NAMPT]”, the “solubility in G1/S (log2)” value in the data set on HeLa Kyoto [1] was 0.264. The melting temperature in the data set on HeLa Kyoto [2] (cell cycle stage: G1/S) was found to be 56.9 °C; in the data set with HeLa Kyoto [2] (cell cycle stage: mitosis), 55.9 °C. For the same substance, the “solubility change mitosis (log2)” value with HeLa Kyoto [3] is -0.0826. For the same substance, the figures for the thermal stability score in the data set on HeLa Kyoto [4] (setting [5]) and in the data set with HeLa Kyoto [4] (cell cycle stage: mitosis) were -1.65 and -1.17, respectively.
For the substance “MDAALKRSRSEEPAEILPPARDEEEEEEEGMEQGLEEEEEVDPRIQGELEKLNQSTDDINRRETELEDARQKFRSVLVEATVKLDELVKKIGKAVEDSKPYWEARRVARQAQLEAQKATQDFQRATEVLRAAKETISLAEQRLLEDDKRQFDSAWQEMLNHATQRVMEAEQTKTRSELVHKETAARYNAAMGRMRQLEKKLKRAINKSKPYFELKAKYYVQLEQLKKTVDDLQAKLTLAKGEYKMALKNLEMISDEIHERRRSSAMGPRGCGVGAEGSSTSVEDLPGSKPEPDAISVASEAFEDDSCSNFVSEDDSETQSVSSFSSGPTSPSEMPDQFPAVVRPGSLDLPSPVSLSEFGMMFPVLGPRSECSGASSPECEVERGDRAEGAENKTSDKANNNRGLSSSSGSGGSSKSQSSTSPEGQALENRMKQLSLQCSKGRDGIIADIKMVQIG [SH3BP5]”, the “solubility in G1/S (log2)” value in the data set with HeLa Kyoto [1] is 0.134. Further, the figures for the melting temperature with HeLa Kyoto [2] (cell cycle stage: G1/S) and with HeLa Kyoto [2] (cell cycle stage: mitosis) were 53.2 °C and 52 °C, respectively. Further, the “solubility change mitosis (log2)” value with HeLa Kyoto [3] is -0.0509. The thermal stability score is -1.02 in the data set with HeLa Kyoto [4] (setting [5]) and -0.824 in the data set on HeLa Kyoto [4] (cell cycle stage: mitosis).
With “MIGGLFIYNHKGEVLISRVYRDDIGRNAVDAFRVNVIHARQQVRSPVTNIARTSFFHVKRSNIWLAAVTKQNVNAAMVFEFLYKMCDVMAAYFGKISEENIKNNFVLIYELLDEILDFGYPQNSETGALKTFITQQGIKSQHQTKEEQSQITSQVTGQIGWRREGIKYRRNELFLDVLESVNLLMSPQGQVLSAHVSGRVVMKSYLSGMPECKFGMNDKIVIEKQGKGTADETSKSGKQSIAIDDCTFHQCVRLSKFDSERSISFIPPDGEFELMRYRTTKDIILPFRVIPLVREVGRTKLEVKVVIKSNFKPSLLAQKIEVRIPTPLNTSGVQVICMKGKAKYKASENAIVWKIKRMAGMKESQISAEIELLPTNDKKKWARPPISMNFEVPFAPSGLKVRYLKVFEPKLNYSDHDVIKWVRYIGRSGIYETRC [AP2M1]”, in the data set with HeLa Kyoto [1], the “solubility in G1/S (log2)” value was -0.387. Further, the melting temperature with HeLa Kyoto [2] (cell cycle stage: G1/S) amounted to 52.3 °C; in the data set on HeLa Kyoto [2] (cell cycle stage: mitosis), 51.6 °C. Besides, the “solubility change mitosis (log2)” value in the data set with HeLa Kyoto [3] was determined as 0.00223. Further, the thermal stability score with HeLa Kyoto [4] (setting [5]) is -2.25; in the data set on HeLa Kyoto [4] (cell cycle stage: mitosis), -0.263.
In the case of “MPDYLGADQRKTKEDEKDDKPIRALDEGDIALLKTYGQSTYSRQIKQVEDDIQQLLKKINELTGIKESDTGLAPPALWDLAADKQTLQSEQPLQVARCTKIINADSEDPKYIINVKQFAKFVVDLSDQVAPTDIEEGMRVGVDRNKYQIHIPLPPKIDPTVTMMQVEEKPDVTYSDVGGCKEQIEKLREVVETPLLHPERFVNLGIEPPKGVLLFGPPGTGKTLCARAVANRTDACFIRVIGSELVQKYVGEGARMVRELFEMARTKKACLIFFDEIDAIGGARFDDGAGGDNEVQRTMLELINQLDGFDPRGNIKVLMATNRPDTLDPALMRPGRLDRKIEFSLPDLEGRTHIFKIHARSMSVERDIRFELLARLCPNSTGAEIRSVCTEAGMFAIRARRKIATEKDFLEAVNKVIKSYAKFSATPRYMTYN [PSMC2]”, the “solubility in G1/S (log2)” value in the data set on HeLa Kyoto [1] came out at 0.358. For the same substance, the melting temperature was determined as 53.2 °C in the data set with HeLa Kyoto [2] (cell cycle stage: G1/S) and 52 °C in the data set on HeLa Kyoto [2] (cell cycle stage: mitosis). Moreover, the “solubility change mitosis (log2)” value in the data set with HeLa Kyoto [3] was -0.143. The thermal stability score in the data set on HeLa Kyoto [4] (setting [5]) came to 1.24; in the data set with HeLa Kyoto [4] (cell cycle stage: mitosis) it was 0.521.
With HDGF, the “solubility in G1/S (log2)” value in the data set with HeLa Kyoto [1] came out at 0.426. In addition, the results for the melting temperature in the data set on HeLa Kyoto [2] (cell cycle stage: G1/S) and with HeLa Kyoto [2] (cell cycle stage: mitosis) were 53.5 °C and 53.2 °C, respectively. In the data set on HeLa Kyoto [3], the “solubility change mitosis (log2)” value is 0.219. In addition, the figures for the thermal stability score in the data set on HeLa Kyoto [4] (setting [5]) and in the data set with HeLa Kyoto [4] (cell cycle stage: mitosis) were -2.27 and -3.47, respectively.
As for “MVRKPVVSTISKGGYLQGNVNGRLPSLGNKEPPGQEKVQLKRKVTLLRGVSIIIGTIIGAGIFISPKGVLQNTGSVGMSLTIWTVCGVLSLFGALSYAELGTTIKKSGGHYTYILEVFGPLPAFVRVWVELLIIRPAATAVISLAFGRYILEPFFIQCEIPELAIKLITAVGITVVMVLNSMSVSWSARIQIFLTFCKLTAILIIIVPGVMQLIKGQTQNFKDAFSGRDSSITRLPLAFYYGMYAYAGWFYLNFVTEEVENPEKTIPLAICISMAIVTIGYVLTNVAYFTTINAEELLLSNAVAVTFSERLLGNFSLAVPIFVALSCFGSMNGGVFAVSRLFYVASREGHLPEILSMIHVRKHTPLPAVIVLHPLTMIMLFSGDLDSLLNFLSFARWLFIGLAVAGLIYLRYKCPDMHRPFKVPLFIPALFSFTCLFMVALSLYSDPFSTGIGFVITLTGVPAYYLFIIWDKKPRWFRIMSEKITRTLQIILEVVPEEDKL [SLC7A11]”, the “solubility in G1/S (log2)” value with HeLa Kyoto [1] is -0.0116. In the data set with HeLa Kyoto [2] (cell cycle stage: mitosis), this substance showed a melting temperature of 57.5 °C. The “solubility change mitosis (log2)” value in the data set with HeLa Kyoto [3] was -0.169. In addition, the thermal stability score in the data set with HeLa Kyoto [4] (setting [5]) was found to be 0.372; with HeLa Kyoto [4] (cell cycle stage: mitosis), 0.123.
